The text below walks through data of PMC4372654.

Like-named read-outs stand apart in the source and are kept apart here.

What all share (assay): competition
The target of data set [1] is T1, Orf16 (KfrA homolog), His-tagged (Paenibacillus popilliae ATCC 14706T …, UniProt A0A0D6CB60 1-326).
T1 sequence: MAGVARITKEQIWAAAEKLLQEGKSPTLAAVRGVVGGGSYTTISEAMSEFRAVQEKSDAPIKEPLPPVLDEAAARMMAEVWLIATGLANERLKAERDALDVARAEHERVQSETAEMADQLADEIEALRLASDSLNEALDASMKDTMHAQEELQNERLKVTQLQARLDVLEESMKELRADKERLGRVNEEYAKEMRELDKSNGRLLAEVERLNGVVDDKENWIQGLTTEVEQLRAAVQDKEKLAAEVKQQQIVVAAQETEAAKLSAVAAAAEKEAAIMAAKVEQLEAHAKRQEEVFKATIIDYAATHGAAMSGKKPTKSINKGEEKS

Data set [2] has as its target T2, Orf8 (KfrA homolog), His-tagged (Paenibacillus popilliae ATCC 14706T …, UniProt A0A0D6CAG5 1-327).
T2 sequence: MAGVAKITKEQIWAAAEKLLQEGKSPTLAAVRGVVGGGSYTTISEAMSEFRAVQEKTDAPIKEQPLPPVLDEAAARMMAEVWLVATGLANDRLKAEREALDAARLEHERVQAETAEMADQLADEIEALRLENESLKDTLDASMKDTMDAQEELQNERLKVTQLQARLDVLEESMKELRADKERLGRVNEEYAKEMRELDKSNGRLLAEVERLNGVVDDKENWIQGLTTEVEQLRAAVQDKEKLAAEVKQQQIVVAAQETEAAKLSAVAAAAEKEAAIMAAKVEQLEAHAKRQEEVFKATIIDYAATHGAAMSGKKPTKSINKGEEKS

For data set [3], the target named is T1, Orf16 (KfrA homolog), His-tagged. The source holds these as a separate data set.

B1: IR3 (dsDNA)
DNA 1: CATACTACATATTACATATTACATACTACATACTACAATATGGAGGGTG
DNA 2: GTACCACCCTCCATATTGTAGTATGTAGTATGTAATATGTAATATGTAGTATGAGCT
B1: the binding result in data set [1] and in data set [2] was “binds” in each case.

B2: IR1 (dsDNA)
DNA 1: CATGAAAAAATCATG
DNA 2: GTACCATGATTTTTTCATGAGCT
In the case of B2, the binding result in data set [3] is listed as “no binding”.

B3: IR4 (dsDNA)
DNA 1: CATACTACATACAATATACAACATACTACAATATGGAGGGTG
DNA 2: GTACCACCCTCCATATTGTAGTATGTTGTATATTGTATGTAGTATGAGCT
Regarding B3, the binding result in data set [1] and in data set [2] was “binds” each time.
